Measurements published in patent publication US20100009920.

What was measured:
[1] = molecular target: T1, GST-tagged EGFR-DEL3 (amino acid 1046-1186)
T1 chain: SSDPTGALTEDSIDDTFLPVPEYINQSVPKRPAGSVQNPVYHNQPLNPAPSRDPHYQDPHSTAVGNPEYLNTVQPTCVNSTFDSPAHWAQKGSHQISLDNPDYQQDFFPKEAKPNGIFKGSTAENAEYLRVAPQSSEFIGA

[2] = molecular target: catalytically-active recombinant GST-tagged human EGFR (active-rhEGFR; Upstate), P00533
[3] = molecular target: T2, GST-tagged EGFR-DEL1 (amino acid 692-891)
T2 chain: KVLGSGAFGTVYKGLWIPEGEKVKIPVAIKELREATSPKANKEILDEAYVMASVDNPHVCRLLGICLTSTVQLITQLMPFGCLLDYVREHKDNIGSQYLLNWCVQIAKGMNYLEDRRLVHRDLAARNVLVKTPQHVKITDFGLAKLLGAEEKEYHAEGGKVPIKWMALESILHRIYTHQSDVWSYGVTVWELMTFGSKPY

[4] = molecular target: GST-tagged EGFR-DEL2 protein (amino acid 889-1045)
[5] = molecular target: T3, EGFR-DEL4 (amino acid 977-1045) protein
T3 chain: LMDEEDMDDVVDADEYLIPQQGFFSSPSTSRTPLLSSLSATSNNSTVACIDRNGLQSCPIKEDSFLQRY

[6] = molecular target: GST-tagged EGFR-DEL2 (Y992A) protein

B1: purified recombinant His-tagged TTK (protein)
chain: MESEDLSGRELTIDSIMNKVRDIKNKFKNEDLTDELSLNKISADTTDNSGTVNQIMMMANNPEDWLSLLLKLEKNSVPLSDALLNKLIGRYSQAIEALPPDKYGQNESFARIQVRFAELKAIQEPDDARDYFQMARANCKKFAFVHISFAQFELSQGNVKKSKQLLQKAVERGAVPLEMLEIALRNLNLQKKQLLSEEEKKNLSASTVLTAQESFSGSLGHLQNRNNSCDSRGQTTKARFLYGENMPPQDAEIGYRNSLRQTNKTKQSCPFGRVPVNLLNSPDCDVKTDDSVVPCFMKRQTSRSECRDLVVPGSKPSGNDSCELRNLKSVQNSHFKEPLVSDEKSSELIITDSITLKNKTESSLLAKLEETKEYQEPEVPESNQKQWQSKRKSECINQNPAASSNHWQIPELARKVNTEQKHTTFEQPVFSVSKQSPPISTSKWFDPKSICKTPSSNTLDDYMSCFRTPVVKNDFPPACQLSTPYGQPACFQQQQHQILATPLQNLQVLASSSANECISVKGRIYSILKQIGSGGSSKVFQVLNEKKQIYAIKYVNLEEADNQTLDSYRNEIAYLNKLQQHSDKIIRLYDYEITDQYIYMVMECGNIDLNSWLKKKKSIDPWERKSYWKNMLEAVHTIHQHGIVHSDLKPANFLIVDGMLKLIDFGIANQMQPDTTSVVKDSQVGTVNYMPPEAIKDMSSSRENGKSKSKISPKSDVWSLGCILYYMTYGKTPFQQIINQISKLHAIIDPNHEIEFPDIPEKDLQDVLKCCLKRDPKQRISIPELLAHPYVQIQTHPVNQMAKGTTEEMKYVLGQLVGLNSPNSILKAAKTLYEHYSGGESHNSSSSKTFEKKRGKK
[1]
  tyrosine phosphorylation (in vitro kinase assay, western blot): other tyrosine residues in GST-tagged EGFR-DEL1 (amino acid 692-891), EGFR-DEL2 and EGFR-DEL3 (amino acid 1046-1186) proteins were not phosphorylated at all
[2]
  tyrosine phosphorylation of active-rhEGFR (in vitro kinase assay, anti-phospho-tyrosine western blot): the phosphorylation of active-rhEGFR by TTK was not inhibited by AG1478
[3]
  tyrosine phosphorylation (in vitro kinase assay, western blot): other tyrosine residues in GST-tagged EGFR-DEL1 (amino acid 692-891), EGFR-DEL2 and EGFR-DEL3 (amino acid 1046-1186) proteins were not phosphorylated at all
[4]
  phosphorylation of EGFR Tyr-992 (in vitro kinase assay, western blot): Phosphorylation of EGFR Tyr-992 in GST-tagged EGFR-DEL2 protein (amino acid 889-1045) was promoted in a TTK-dose dependent manner
  phosphorylation site by MALDI tandem mass spectrometry after in vitro phosphorylation: phosphorylation of EGFR Ser-967 was identified (data not shown)
[5]
  phosphorylation of EGFR Tyr-992 (in vitro kinase assay): EGFR-DEL4 (amino acid 977-1045) protein was not phosphorylated at Tyr-992 (data not shown)
[6]
  32P incorporation ([gamma-32P] ATP in vitro kinase assay, autoradiography): This mutation remarkably reduced the intensity of lower-band, but did not reduce that of upper-band
